Results reported in the supplement of paper PMC5998384.

Experiments:
[1] = test system: HeLa Kyoto; experiment: solubility change mitosis vs G1/S (difference of NP-40 vs SDS log2 ratios) (log2 ratio difference); higher = more soluble in mitosis
[2] = test system: HeLa Kyoto; experiment: solubility in G1/S (NP-40 vs SDS abundance) (log2 ratio); higher = more soluble; settings: cell cycle stage: G1/S
[3] = test system: HeLa Kyoto; experiment: melting temperature (median over replicates), in situ; higher = more thermally stable
[4] = test system: HeLa Kyoto; experiment: thermal stability score vs G1/S (z-score of summed log2 fold changes over temperatures); higher = more thermally stable than in G1/S
[5] = cell cycle stage: early G1 (4.5 h after nocodazole release)
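Throughout, for melting temperature (median over replicates), in situ: HeLa Kyoto cells synchronized by double thymidine or nocodazole block, proteins quantified by TMT10plex mass spectrometry, three independent biological replicates.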
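Throughout, for solubility change mitosis vs G1/S (difference of NP-40 vs SDS log2 ratios): synchronized HeLa Kyoto cells (double thymidine block for G1/S, nocodazole release for mitosis), protein amounts in NP-40 versus SDS lysates quantified by mass spectrometry, three biological replicates.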
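Throughout, for solubility in G1/S (NP-40 vs SDS abundance): HeLa Kyoto cells arrested at G1/S by double thymidine block, proteins quantified by TMT10plex mass spectrometry in mild NP-40 versus SDS extracts, three biological replicates.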
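Throughout, for thermal stability score vs G1/S (z-score of summed log2 fold changes over temperatures): synchronized HeLa Kyoto cells, proteins quantified by TMT10plex mass spectrometry, three biological replicates, mitosis taken 0.5 h after nocodazole release, G1/S directly after double thymidine block.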

Sequence of CDK16 (chain, as listed by the source): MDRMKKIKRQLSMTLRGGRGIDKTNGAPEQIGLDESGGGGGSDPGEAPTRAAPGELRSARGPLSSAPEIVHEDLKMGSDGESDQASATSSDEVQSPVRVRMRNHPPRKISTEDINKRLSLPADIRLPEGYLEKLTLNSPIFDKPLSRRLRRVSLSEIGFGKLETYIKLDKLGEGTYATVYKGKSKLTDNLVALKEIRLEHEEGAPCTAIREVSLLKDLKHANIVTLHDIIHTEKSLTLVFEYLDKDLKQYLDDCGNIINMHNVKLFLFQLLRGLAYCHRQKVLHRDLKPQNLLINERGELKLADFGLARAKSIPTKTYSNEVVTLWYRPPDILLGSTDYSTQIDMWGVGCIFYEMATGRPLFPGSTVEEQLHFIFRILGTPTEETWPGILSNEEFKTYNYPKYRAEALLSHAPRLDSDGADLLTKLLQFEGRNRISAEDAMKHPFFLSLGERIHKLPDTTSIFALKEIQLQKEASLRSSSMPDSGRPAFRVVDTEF
Sequence of ARFGAP2 (chain, as listed by the source): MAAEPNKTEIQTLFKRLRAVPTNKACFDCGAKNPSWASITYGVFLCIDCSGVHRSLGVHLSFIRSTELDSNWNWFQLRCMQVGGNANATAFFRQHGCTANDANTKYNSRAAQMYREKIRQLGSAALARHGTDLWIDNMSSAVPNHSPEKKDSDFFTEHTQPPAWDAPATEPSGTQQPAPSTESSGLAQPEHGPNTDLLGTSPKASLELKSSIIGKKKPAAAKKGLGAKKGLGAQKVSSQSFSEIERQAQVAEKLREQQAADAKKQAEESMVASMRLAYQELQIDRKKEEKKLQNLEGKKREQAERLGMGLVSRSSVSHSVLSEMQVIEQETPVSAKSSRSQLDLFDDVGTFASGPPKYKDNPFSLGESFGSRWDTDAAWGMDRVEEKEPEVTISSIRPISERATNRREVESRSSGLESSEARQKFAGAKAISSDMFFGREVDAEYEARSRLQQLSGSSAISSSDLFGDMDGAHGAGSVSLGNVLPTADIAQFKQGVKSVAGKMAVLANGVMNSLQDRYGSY
Sequence of CDC42 (chain, as listed by the source): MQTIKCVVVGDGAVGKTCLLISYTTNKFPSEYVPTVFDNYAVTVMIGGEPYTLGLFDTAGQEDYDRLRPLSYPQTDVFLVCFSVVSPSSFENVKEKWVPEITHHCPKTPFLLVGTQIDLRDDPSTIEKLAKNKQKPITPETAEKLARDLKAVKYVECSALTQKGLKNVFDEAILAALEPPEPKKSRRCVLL
Sequence of ANKH (chain, as listed by the source): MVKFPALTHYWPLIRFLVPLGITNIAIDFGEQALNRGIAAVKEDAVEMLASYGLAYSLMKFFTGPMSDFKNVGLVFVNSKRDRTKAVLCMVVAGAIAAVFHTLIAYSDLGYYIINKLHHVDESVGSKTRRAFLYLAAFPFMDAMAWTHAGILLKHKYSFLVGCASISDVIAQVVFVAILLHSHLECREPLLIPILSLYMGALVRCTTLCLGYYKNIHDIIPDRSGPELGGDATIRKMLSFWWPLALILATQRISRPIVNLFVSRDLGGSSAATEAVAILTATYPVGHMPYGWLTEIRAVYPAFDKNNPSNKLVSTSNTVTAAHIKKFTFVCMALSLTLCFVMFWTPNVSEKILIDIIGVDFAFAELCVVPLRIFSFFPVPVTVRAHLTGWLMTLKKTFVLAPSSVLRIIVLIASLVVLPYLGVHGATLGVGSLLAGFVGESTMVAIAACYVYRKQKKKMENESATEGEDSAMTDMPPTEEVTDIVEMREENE

| Substance | solubility change mitosis (log2) [1] | solubility in G1/S (log2) [2] | melting temperature ([3]; cell cycle stage: G1/S) [°C] | melting temperature ([3]; cell cycle stage: mitosis) [°C] | thermal stability score [4, 5] | thermal stability score ([4]; cell cycle stage: mitosis) |
| --- | --- | --- | --- | --- | --- | --- |
| AKAP9 | -0.0345 | -0.0993 | 49.3 | 49.6 | 1.11 | 1.77 |
| ALDH3A2 | -0.0531 | -0.186 | 51 | 50.7 | -0.835 | -0.622 |
| ANKH | 0.155 | -0.292 | 54.9 | 58.2 | -1.21 | -1.75 |
| ARFGAP2 | -0.11 | 0.205 | 49.6 | 49.4 | -0.318 | -0.233 |
| ARFGEF2 | -0.155 | -0.186 | 50.7 | 50.5 | 0.0515 | -0.274 |
| ARHGAP35 | -0.124 | -0.0977 | 48.6 | 49.4 | 1.69 | 3.46 |
| ARHGEF12 | -0.0996 | -0.0555 | 50.7 | 50.4 | -0.146 | 0.3 |
| ASL | 0.00521 | -0.0391 | 51.4 | 52.1 | 3.02 | 4.07 |
| ATP1B3 | 0.0393 | 0.832 | 55.5 | 56.1 | -1.58 | -2.77 |
| ATP13A1 | -0.00617 | -0.281 | 53.1 | 52.9 | -0.031 | -0.441 |
| BIRC6 | -0.125 | -0.141 | 51.6 | 51.2 | -0.354 | -0.341 |
| CAD | -0.146 | -0.137 | 50.6 | 50 | -0.499 | 0.0146 |
| CARKD | -0.211 | 0.243 | 54.8 | 56.1 | -0.234 | -1.33 |
| CASC5 | -0.0741 | -0.247 | 47.7 | 48.3 | 1.3 | 1.4 |
| CDC42 | -0.0727 | 0.629 | 60.1 | 59.8 | -1.73 | 1.82 |
| CDC42BPA | -0.0814 | -0.143 | 49.8 | 50.3 | -0.472 | 0.207 |
| CDK16 | -0.105 | 0.548 | 50.7 | 53.1 | -0.616 | 0.901 |
| CELSR2 | -0.142 | 0.141 | 56.8 | 54.6 | -4.5 | -5.14 |
| CEP170 | 0.0625 | -0.112 | 50.3 | 51.5 | 0.653 | 2.64 |
